This is an account of results in patent US9193963B2, “Mutant endoglucanase” (Toray Industries, Inc., priority 2011, dated 2015).

A short description of data set [1]: Saccharification of lignocellulose 3 with Trichoderma reesei culture solution and endoglucanase. In kind it is biochemical, Rice straw. To be noted: Lignocellulose 3, 24 hours; cellulase 1.0 mg/mL + endoglucanase 0.1 mg/mL + β-glucosidase (Novozyme 188) 0.01 mg/mL. How it is done:
(§1) Rice straw was used as cellulose. The cellulose was immersed in water, and then autoclaved with agitation at 180° C. for 20 minutes (Nitto Koatsu Co. Ltd.). Pressure at this time was 10 MPa. After treatment, a solution component (hereinafter, referred to as “hydrothermally treated solution”) and the treated biomass component were subjected to solid-liquid separation by centrifugation (3000 G). The thus treated biomass component was used as lignocellulose 3 for the following examples.
(§2) The changes in the amount of glucose generated when the enzyme composition had been caused to act on lignocellulose substrates were compared. The substrates were prepared by suspending 5 wt % lignocelluloses (1 to 3) (prepared in Reference Example 3) in 50 mM acetate buffer (pH5.2). Reactions were performed at 50° C. for 24 hours. The concentrations of the generated glucose were measured after adequate sampling. As a filamentous bacterium-derived cellulase mixture, commercially available Trichoderma reesei-derived cellulase (Celluclast, Sigma) was used. As endoglucanases, the mutant endoglucanases prepared in Example 2 and the wild-type endoglucanases prepared in Reference Example 1 were separately used. The following quantities of enzymes were added: 1.0 mg/mL cellulase, and 0.1 mg/mL endoglucanase (in an amount one tenth that of the cellulase).
(§3) Lignocelluloses (1-3) prepared in Reference Example 3 were used as substrates. The Trichoderma reesei culture solution prepared in Reference Example 4 was used as a filamentous bacterium-derived cellulase mixture. Lignocelluloses (1-3) were hydrolyzed in a manner similar to that in Example 7, except for the quantities of the enzymes added: cellulase (1.0 mg/mL); endoglucanase (0.1 mg/mL (in an amount one tenth that of the cellulase); and β-glucosidase (Novozyme 188) (0.01 mg/mL (in an amount one hundredth that of the cellulase).

A short description of data set [2]: Saccharification of lignocellulose 1 with Celluclast and endoglucanase. In kind it is biochemical, Rice straw. To be noted: 5 wt % Lignocellulose 1, pH 5.2, 50° C., 24 hours; 1.0 mg/mL cellulase + 0.1 mg/mL endoglucanase. How it is done: (§4) Rice straw was used as cellulose. The cellulose was added to a small reactor (Taiatsu Techno Corporation, TVS-N2 (30 ml)), and then cooled with liquid nitrogen. An ammonia gas was fed to the reactor, thereby completely immersing the sample in the liquid ammonia. The reactor was closed using its lid, and then left to stand at room temperature for 15 minutes. Subsequently, treatment was performed for 1 hour in an oil bath at 150° C. After treatment, the reactor was removed from the oil bath, an ammonia gas leak was immediately performed within a draft chamber. The reactor was vacuumed using a vacuum pump to 10 Pa for drying. The resultant was used as lignocellulose 1 in the following examples.
as §2

Data set [3] in a line: Inhibition experiment with vanillin: degradation of phosphoric acid swollen cellulose. The format is biochemical. To be noted: enzyme 0.5 μM, 1 hour, 50° C., parent at 0 mM = 100%.
Method: (§6) This substance was diluted using buffer and water to obtain a 2 wt % mixture so that the final concentration of sodium acetate was 50 mM (pH 5.2). This was designated as phosphoric acid swollen cellulose and used for the following examples.
The activity of the wild-type and the mutant endoglucanases to degrade phosphoric acid swollen cellulose in the presence of vanillin was measured. 1% phosphoric acid swollen cellulose/50 mM acetate buffer (pH 5.2) was used as a substrate. Vanillin (Sigma Aldrich) was added at final concentrations of 0, 5, 10, and 15 mM. The enzymes prepared in Reference Example 1 and Example 2 were added at a final concentration of 0.5 μM, followed by 1 hour of enzymatic reaction at 50° C.
The nature of data set [4]: Saccharification of lignocellulose 3 with Celluclast and endoglucanase. To be noted: 5 wt % Lignocellulose 3, pH 5.2, 50° C., 24 hours; 1.0 mg/mL cellulase + 0.1 mg/mL endoglucanase. The format is biochemical, Rice straw. How it is done: as §1, §2
Data set [5] in a line: Saccharification of lignocellulose 2 with Trichoderma reesei culture solution and endoglucanase. In kind it is biochemical, Rice straw. To be noted: Lignocellulose 2, 24 hours; cellulase 1.0 mg/mL + endoglucanase 0.1 mg/mL + β-glucosidase (Novozyme 188) 0.01 mg/mL. How it is done:
(§5) Rice straw was used as cellulose. Cellulose was immersed in a 1% aqueous sulfuric acid solution, and then autoclaved for 30 minutes at 150° C. (Nitto Koatsu Co. Ltd.). After treatment, the resultant was subjected to solid-liquid separation into an aqueous sulfuric acid solution (hereinafter, referred to as “dilute-sulfuric-acid-treated solution”) and cellulose treated with sulfuric acid. Next, the cellulose treated with sulfuric acid was mixed and agitated with the dilute-sulfuric-acid-treated solution so that the solid content concentration was 10 wt %. Then the mixture was adjusted to around pH 5 using sodium hydroxide. The resultant was used as lignocellulose 2 for the following examples.
as §2, §3

Data set [6] in a line: Saccharification of lignocellulose 2 with Celluclast and endoglucanase. In kind it is biochemical, Rice straw. To be noted: 5 wt % Lignocellulose 2, pH 5.2, 50° C., 24 hours; 1.0 mg/mL cellulase + 0.1 mg/mL endoglucanase. On the procedure:
as §5, §2

Data set [7] in a line: Inhibition experiment with ferulic acid: degradation of phosphoric acid swollen cellulose. In kind it is biochemical. To be noted: enzyme 0.5 μM, 1 hour, 50° C., parent at 0 mM = 100%.
Method: as §6
The activity of the wild-type and the mutant endoglucanases to degrade phosphoric acid swollen cellulose was measured in the presence of ferulic acid. 1% phosphoric acid swollen cellulose/50 mM acetate buffer (pH 5.2) was used as a substrate. Ferulic acid (Sigma Aldrich) was added at final concentrations of 0, 5, 10, and 15 mM. The enzymes prepared in Reference Example 1 and Example 2 were each added at a final concentration of 0.5 μM, followed by 1 hour of enzymatic reaction at 50° C.
Data set [8] in a line: Saccharification of lignocellulose 1 with Trichoderma reesei culture solution and endoglucanase. The format is biochemical, Rice straw. To be noted: Lignocellulose 1, 24 hours; cellulase 1.0 mg/mL + endoglucanase 0.1 mg/mL + β-glucosidase (Novozyme 188) 0.01 mg/mL. How it is done:
as §4, §2, §3

A short description of data set [9]: Activity to degrade phosphoric acid swollen cellulose. To be noted: 1% phosphoric acid swollen cellulose, pH 5.2, enzyme 0.5 μM, 1 hour, 50° C.; glucose generated by each parent endoglucanase = 100%. In kind it is biochemical. The method, boiled down:
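Enzyme added to phosphoric acid swollen cellulose in 50 mM acetate buffer, pH 5.2; 1 h reaction at 30–85 °C, stopped by pH change if needed. Glucose released measured by glucose kit; activity expressed relative to parent endoglucanase set at 100%.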

Positions count from the first letter of the chain named.

B1: EGAc Mutant: mutant EGAc, SEQ ID NO: 32; residue corresponding to 273rd tryptophan substituted with alanine (protein)
chain: MPRALRRVPGSRVMLRVGVVVAVLALVAALANLAVPRPARAAGGGYWHTSGREILDANNVPVRIAGINWFGFETCNYVVHGLWSRDYRSMLDQIKSLGYNTIRLPYSDDILKPGTMPNSINFYQMNQDLQGLTSLQVMDKIVAYAGQIGLRIILDRHRPDCSGQSALWYTSSVSEATWISDLQALAQRYKGNPTVVGFDLHNEPHDPACWGCGDPSIDWRLAAERAGNAVLSVNPNLLIFVEGVQSYNGDSYWAGGNLQGAGQYPVVLNVPNRLVYSAHDYATSVYPQTWFSDPTFPNNMPGIWNKNWGYLFNQNIAPVWLGEFGTTLQSTTDQTWLKTLVQYLRPTAQYGADSFQWTFWSWNPDSGDTGGILKDDWQTVDTVKDGYLAPIKSSIFDPVGASASPSSQPSPSVSPSPSPSPSASRTPTPTPTPTASPTPTLTPTATPTPTASPTPSPTAASGARCTASYQVNSDWGNGFTVTVAVTNSGSVATKTWTVSWTFGGNQTITNSWNAAVTQNGQSVTARNMSYNNVIQPGQNTTFGFQASYTGSNAAPTVACAAS
modifications: Acidthermus cellulolyticus EGAc W254A
notes: residue corresponding to 273rd tryptophan substituted with alanine
Consider B1, for which the figures for the “Concentration of glucose generated, Culture solution + Mutant” value in data set [1], in [5] and in data set [8] were 11 g/L, 11 g/L and 13 g/L, respectively. Also, the entries for the “Concentration of glucose generated, Celluclast + Mutant” value in [2], in data set [4] and in data set [6] were 16 g/L, 14 g/L and 14 g/L, respectively. In addition, the “Relative activity to degrade phosphoric acid swollen cellulose” value in data set [3] (vanillin 0 mM) stood at 100%; in data set [3] (vanillin 5 mM), 100%; in data set [3] (vanillin 10 mM) it was 95%; in data set [3] (vanillin 15 mM) it was 95%; in data set [7] (ferulic acid 0 mM), 100%; in data set [7] (ferulic acid 5 mM), 100%. Also, the figures for the “Relative activity to degrade phosphoric acid swollen cellulose” value in data set [7] (ferulic acid 10 mM) and in data set [7] (ferulic acid 15 mM) were 100% and 95%, respectively. In data set [9], the Relative activity was 100%.

B2: EGSt Wild-type: Spirochaeta thermophile-derived endoglucanase, SEQ ID NO: 37, parent endoglucanase (protein)
chain: MKYLRTILLSLLVFLITLGCSLPFLDVSGKGGTAARATELRVGRLTGVNWFGFETGNHVVHGLWARDYKSMLKQIADLGFNCIRIPWANEMIDKAPNSIQINPSGVDPYTGEQGLNLDLEGLSSLEVLDKIIEEANRLGLYVILDNHSRAADGYMNETLWYTDEYPEERWISDWVMMVRRYKNYPNVIGADLNNEPHGNTGTGMKPPATWGYTLPEYGDTDWKAAAERCAAAILAENPNLYIIVEGVEEYQGDTYWWGGNLKGVRDYPITSIPAENLIYSPHEYGPEVYNQSWFSDPTFPDNMPAIWDEHFWFIYKENIAPVLIGEFGIKEASAADPSSVAYQWFTTFMAYVGDKASWTFWSWNPNSGDTGGILKDDWVTVNEAKYNLIRPYLANPPQPTATPTPTGTPTPTPTPTPTPTPTPTPTPTPTPTATPTPTPTPTPTPTPTPTATPTPSGEYTEIALPFSYDGAGEYYWKTDQFSTDPNDWSRYVNSWNLDLLEINGTDYTNVWVAQHQIPAASDGYWYIHYKSGVSWGHVEIK
modifications: Spirochaeta thermophila EGSt
In the case of B2, the “Concentration of glucose generated, Culture solution + Wild-type” value in data set [1] was 8 g/L; in [5], 9 g/L; in [8] it was 8 g/L. For the same molecule, the “Concentration of glucose generated, Celluclast + Wild-type” value in data set [2] is 11 g/L; in data set [4] it was 11 g/L; in data set [6], 12 g/L. Also, the “Relative activity to degrade phosphoric acid swollen cellulose” value in data set [3] (vanillin 0 mM) is reported as 100%; in data set [3] (vanillin 5 mM), 50%; in data set [3] (vanillin 10 mM), 50%; in data set [3] (vanillin 15 mM), 45%; in [7] (ferulic acid 0 mM), 100%; in [7] (ferulic acid 5 mM), 50%. The “Relative activity to degrade phosphoric acid swollen cellulose” value in [7] (ferulic acid 10 mM) came out at 45%; in data set [7] (ferulic acid 15 mM), 40%. Further, the Relative activity in [9] is recorded as 100%.

B3: EGSt Mutant: mutant EGSt, SEQ ID NO: 38; residue corresponding to 273rd tryptophan substituted with alanine (protein)
chain: B2 chain with W257A
modifications: Spirochaeta thermophila EGSt W257A
notes: as for B1
In the case of B3, the figures for the “Concentration of glucose generated, Culture solution + Mutant” value in data set [1], in data set [5] and in data set [8] were 11 g/L, 12 g/L and 11 g/L, respectively. Moreover, the “Concentration of glucose generated, Celluclast + Mutant” value in data set [2] is reported as 14 g/L; in data set [4], 14 g/L; in [6], 15 g/L. Also, the “Relative activity to degrade phosphoric acid swollen cellulose” value was 100% in data set [3] (vanillin 0 mM); 100% in data set [3] (vanillin 5 mM); 100% in data set [3] (vanillin 10 mM); 90% in data set [3] (vanillin 15 mM); 100% in data set [7] (ferulic acid 0 mM); 100% in data set [7] (ferulic acid 5 mM). Besides, the “Relative activity to degrade phosphoric acid swollen cellulose” value in data set [7] (ferulic acid 10 mM) is 100%; in data set [7] (ferulic acid 15 mM), 90%. Further, the Relative activity in data set [9] worked out at 100%.
